Reference: US20170224769A1

Target: high mobility group box 1 protein (HMGB1) (Homo sapiens (Human)) (UniProt P09429)
Test: SPR (Reichert SR7500DC), HMGB1 coated on CMDH chip

UniProt P09429, sequence (P09429 whole entry, form in doubt): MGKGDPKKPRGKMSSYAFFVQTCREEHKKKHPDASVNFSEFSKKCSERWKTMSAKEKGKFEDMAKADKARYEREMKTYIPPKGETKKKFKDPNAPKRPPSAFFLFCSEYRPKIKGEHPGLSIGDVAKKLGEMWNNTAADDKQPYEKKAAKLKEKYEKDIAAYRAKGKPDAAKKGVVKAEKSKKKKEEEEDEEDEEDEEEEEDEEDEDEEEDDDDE

| Substance | Kd | koff | kon |
| --- | --- | --- | --- |
| rTAT-HMGB1A-his6 (fusion of the TAT peptide and the A box domain of HMGB1, C-terminal six histidines) (from UniProt P04608 49-57; P09429 1-164) | 0.0751 µM | 0.000691 s⁻¹ | 9200 M⁻¹ s⁻¹ |
| rHMGB1A-his6 (high mobility group box 1 A domain, C-terminal six histidines) (from UniProt P09429 1-164) | 2.8 µM | 0.00394 s⁻¹ | 1400 M⁻¹ s⁻¹ |
